Data from publication PMC6849236.

Legend:
[1] = molecular target: CBM3-CtCoh-CcsCoh-RfCoh synthetic mini-scaffoldin (C. thermocellum ATCC 27405 | C. cellulovorans ATCC 35296 | R. flavefaciens)
[2] = molecular target: CBM3-CtCoh-CcsCoh-RfCoh synthetic mini-scaffoldin (C. thermocellum ATCC 27405 | C. cellulovorans ATCC 35296 | R. flavefaciens); test: pull-down; RAC pull-down: cell lysate supernatants of dockerin-containing enzymes (in slight excess) mixed with 0.5 mL cell lysate supernatant of CBM3-Scaf3, 2 mg RAC added, room temperature 5 min; RAC pellet washed three times in 100 mM HEPES pH 7.5, 50 mM NaCl, 1 mM CaCl2; 12% SDS-PAGE, band intensities

Chain of CDP-CtDoc (A3DH67 whole entry): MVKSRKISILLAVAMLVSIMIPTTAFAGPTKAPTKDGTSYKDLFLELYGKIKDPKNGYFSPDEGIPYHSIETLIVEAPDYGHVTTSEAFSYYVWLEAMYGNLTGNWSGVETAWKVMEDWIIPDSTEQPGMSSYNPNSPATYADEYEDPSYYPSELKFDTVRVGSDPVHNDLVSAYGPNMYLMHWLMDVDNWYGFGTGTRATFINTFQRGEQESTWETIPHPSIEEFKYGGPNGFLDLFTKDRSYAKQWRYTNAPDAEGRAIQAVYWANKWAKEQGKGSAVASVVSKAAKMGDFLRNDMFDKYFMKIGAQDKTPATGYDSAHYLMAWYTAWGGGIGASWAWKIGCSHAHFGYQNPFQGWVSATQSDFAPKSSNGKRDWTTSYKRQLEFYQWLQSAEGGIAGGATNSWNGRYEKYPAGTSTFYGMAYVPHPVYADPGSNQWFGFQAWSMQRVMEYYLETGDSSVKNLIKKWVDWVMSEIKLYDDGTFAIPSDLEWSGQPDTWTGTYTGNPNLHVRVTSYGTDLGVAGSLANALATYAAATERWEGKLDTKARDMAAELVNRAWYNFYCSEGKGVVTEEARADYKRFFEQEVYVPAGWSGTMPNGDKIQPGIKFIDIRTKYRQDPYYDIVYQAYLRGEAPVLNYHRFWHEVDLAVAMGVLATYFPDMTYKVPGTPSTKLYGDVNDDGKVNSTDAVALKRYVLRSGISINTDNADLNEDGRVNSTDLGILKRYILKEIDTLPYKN

specific activity of RAC immobilized CBM3-Scaf3/PGM-CcsDoc; 0.5 mL cell lysate supernatant of CBM3-Scaf3 mixed with PGM-CcsDoc supernatant, highest at 2 mL [1]	stoichiometry N [2]	specific activity of RAC immobilized CBM3-Scaf3/PGM-RfDoc; 0.5 mL cell lysate supernatant of CBM3-Scaf3 mixed with PGM-RfDoc supernatant, highest at 2 mL [1]	specific activity of RAC immobilized CBM3-Scaf3/CDP-RfDoc; 0.5 mL cell lysate supernatant of CBM3-Scaf3 mixed with CDP-RfDoc supernatant, highest at 2 mL [1]	specific activity of RAC immobilized CBM3-Scaf3/CDP-CtDoc; 0.5 mL cell lysate supernatant of CBM3-Scaf3 mixed with different volumes of CDP-CtDoc supernatant, highest at 1 mL, no increase with excess [1]	Substance
23 U mL^−1	1	–	–	–	PGM-CcsDoc (enzyme)
–	1	22.4 U mL^−1	–	–	PGM-RfDoc (from UniProt Q9AE53 787-879) (enzyme)
–	1	–	0.71 U mL^−1	–	CDP-RfDoc (from UniProt Q9AE53 787-879) (enzyme)
–	1	–	–	0.72 U mL^−1	CDP-CtDoc (from UniProt A3DH67 673-741) (enzyme)
